Assay results as given in the supplement of paper PMC10567573.

B1: RSPH3 (parent)
chain: KAASLARNLAKRRRTYLGGAAGRS
B2: HDAC6 (parent)
chain: QYMNEGELRVLADTYDSVYLHPNS

Variants of: B1
Experiment: protein stability index of a GFP-peptide fusion (GPS, HEK-293T) (PSI 1-6); higher = more stable
Conditions: c terminus: a fixed tail appended
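Note: lentivirally expressed fusions sorted by FACS into six bins by GFP to DsRed ratio, PSI derived from sequencing read proportions per bin multiplied by bin number.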

| Variant | protein stability index |
| --- | --- |
| KAASLHRNLAKRRRTYLGGAAGRS [A6H] | 2.2 |
| KAASGARNLAKRRRTYLGGAAGRS [L5G] | 4.8 |
| KAASWARNLAKRRRTYLGGAAGRS [L5W] | 2.58 |
| KAASFARNLAKRRRTYLGGAAGRS [L5F] | 2.56 |
| KAASCARNLAKRRRTYLGGAAGRS [L5C] | 2.89 |
| KAASVARNLAKRRRTYLGGAAGRS [L5V] | 4.21 |
| KAASAARNLAKRRRTYLGGAAGRS [L5A] | 4.18 |
| KAASTARNLAKRRRTYLGGAAGRS [L5T] | 3.96 |
| KAASIARNLAKRRRTYLGGAAGRS [L5I] | 2.58 |
| KAASMARNLAKRRRTYLGGAAGRS [L5M] | 2.33 |
| KAASQARNLAKRRRTYLGGAAGRS [L5Q] | 4.14 |
| KAASDARNLAKRRRTYLGGAAGRS [L5D] | 4.65 |
| KAASLARNLARRRRTYLGGAAGRS [K11R] | 2.91 |
| KAASLARNLAIRRRTYLGGAAGRS [K11I] | 2.78 |
| KAASLARNLAFRRRTYLGGAAGRS [K11F] | 1.92 |
| KAASLARNLATRRRTYLGGAAGRS [K11T] | 1.56 |
| KAASLARNLAQRRRTYLGGAAGRS [K11Q] | 1.98 |
| KAASLARNLAWRRRTYLGGAAGRS [K11W] | 1.71 |
| KAASLARNLAGRRRTYLGGAAGRS [K11G] | 2.49 |
| KAASLARNLAARRRTYLGGAAGRS [K11A] | 1.64 |
| KAASLARNLANRRRTYLGGAAGRS [K11N] | 2.36 |
| KAASLARNLAPRRRTYLGGAAGRS [K11P] | 2.89 |
| KAASLARYLAKRRRTYLGGAAGRS [N8Y] | 3.42 |
| KAASLARSLAKRRRTYLGGAAGRS [N8S] | 2.88 |

| Variant | protein stability index |
| --- | --- |
| KAASLARKLAKRRRTYLGGAAGRS [N8K] | 2.52 |
| KAASLARQLAKRRRTYLGGAAGRS [N8Q] | 1.35 |
| KAASLARDLAKRRRTYLGGAAGRS [N8D] | 3.23 |
| KAASLARFLAKRRRTYLGGAAGRS [N8F] | 2.33 |
| KAASLARLLAKRRRTYLGGAAGRS [N8L] | 2.26 |
| KAASLARGLAKRRRTYLGGAAGRS [N8G] | 3.98 |
| KAASLARNLAKRARTYLGGAAGRS [R13A] | 1.51 |
| KAASLARNLAKRFRTYLGGAAGRS [R13F] | 3.92 |
| KAASLARNLAKRGRTYLGGAAGRS [R13G] | 2.11 |
| KAASLARNLAKRDRTYLGGAAGRS [R13D] | 3.58 |
| KAASLARNLAKRMRTYLGGAAGRS [R13M] | 3.77 |
| KAASLARNLAKRWRTYLGGAAGRS [R13W] | 2.91 |
| KAASLARNLAKRVRTYLGGAAGRS [R13V] | 1.92 |
| KAASLARNLAKRNRTYLGGAAGRS [R13N] | 3.36 |
| KAASLARNLAKRSRTYLGGAAGRS [R13S] | 2.52 |
| KAASLARNLAKRTRTYLGGAAGRS [R13T] | 2.4 |
| KAASLARNLAKRRRTGLGGAAGRS [Y16G] | 3.03 |
| KAASLARNLAKRRRTKLGGAAGRS [Y16K] | 2.49 |
| KAASLARNLAKRRRTHLGGAAGRS [Y16H] | 3.32 |
| KAASLARNLAKRRRTALGGAAGRS [Y16A] | 3.41 |
| KAASLARNLAKRRRTLLGGAAGRS [Y16L] | 2.29 |
| KAASLARNLAKRRRTFLGGAAGRS [Y16F] | 3.2 |
| KAASLARNLAKRRRTQLGGAAGRS [Y16Q] | 2.81 |
| KAASLARNLAKRRRTELGGAAGRS [Y16E] | 1.86 |

| Variant | protein stability index |
| --- | --- |
| KAASLARNLAKRRRTPLGGAAGRS [Y16P] | 3.04 |
| KAASLARNLAKRRRTMLGGAAGRS [Y16M] | 2.26 |
| KAASLARNLAKRRRTVLGGAAGRS [Y16V] | 2.17 |
| KAASLARNLAKRRRTYLAGAAGRS [G18A] | 2.25 |
| KAASLARNLAKRRRTYLEGAAGRS [G18E] | 2.45 |
| KAASLARNLAKRRRTYLFGAAGRS [G18F] | 1.78 |
| KNASLARNLAKRRRTYLGGAAGRS [A2N] | 3.47 |
| KRASLARNLAKRRRTYLGGAAGRS [A2R] | 3.91 |
| KEASLARNLAKRRRTYLGGAAGRS [A2E] | 3.41 |
| KGASLARNLAKRRRTYLGGAAGRS [A2G] | 3 |
| KIASLARNLAKRRRTYLGGAAGRS [A2I] | 1.71 |
| KFASLARNLAKRRRTYLGGAAGRS [A2F] | 2.08 |
| KSASLARNLAKRRRTYLGGAAGRS [A2S] | 3.04 |
| KTASLARNLAKRRRTYLGGAAGRS [A2T] | 3.68 |
| KQASLARNLAKRRRTYLGGAAGRS [A2Q] | 3.13 |
| KAASLARNPAKRRRTYLGGAAGRS [L9P] | 3.94 |
| KAASLARNEAKRRRTYLGGAAGRS [L9E] | 4.34 |
| KAASLARNRAKRRRTYLGGAAGRS [L9R] | 4.9 |
| KAASLARNNAKRRRTYLGGAAGRS [L9N] | 4.46 |
| KAASLARNWAKRRRTYLGGAAGRS [L9W] | 2.38 |
| KAASLARNFAKRRRTYLGGAAGRS [L9F] | 2.44 |
| KAASLARNKAKRRRTYLGGAAGRS [L9K] | 4.94 |
| KAASLARNAAKRRRTYLGGAAGRS [L9A] | 3.41 |

Variants of: B2
Experiment: as above
Conditions: c terminus: a fixed tail appended

| Variant | protein stability index |
| --- | --- |
| QYMNEGELRVLADTYDSVYLHPNY [S24Y] | 1.41 |
| QYMNEGELRVLADTYDSVYLHPNA [S24A] | 1.44 |
| QYMNEGELRVLADTYDSVYLHPNV [S24V] | 1.74 |
| QYMNEGELRVLADTYDSVYLHPNR [S24R] | 2.4 |
| QYMNEGELRVLADTYDSVYLHPNM [S24M] | 1.57 |
| QYMNEGELRVLADTYDSVYLHPNK [S24K] | 1.46 |
| QYMNEGELRVLADTYDSVYLHPNH [S24H] | 1.61 |
| QYMNEGELRVLADTYDSVYLHPNC [S24C] | 1.64 |
| QYMNEGELRVLADTYDSVYLHPNN [S24N] | 2.04 |
| QYMNEGELRVLADTYDSVYLHPNE [S24E] | 1.73 |
| QYMNEGELRVLADTYDSVYLHPND [S24D] | 2.58 |
| QYMNEGELRVLADTYDSVYLHPNL [S24L] | 1.52 |
| QYMNEGELRVLADTYDSVYLHPNT [S24T] | 1.52 |
| QYMNEGELRVLADTYDSVYLHPNF [S24F] | 1.58 |
| QYMNEGELRVLADTYDSVYLHPNI [S24I] | 3.21 |
| QYMNEGELRVLADTYDSVYLHPNW [S24W] | 1.24 |
| QYMNEGELRVLADTYDSVYLHPNQ [S24Q] | 3.76 |
| QYMNEGELRVLADTYDSVYLHPNG [S24G] | 2.24 |
| QYMNEGELRVLADTYDSVYLHPNP [S24P] | 1.91 |
| QYMNEGELRVLADTYDSVYLHPTS [N23T] | 2.03 |
| QYMNEGELRVLADTYDSVYLHPWS [N23W] | 1.46 |
| QYMNEGELRVLADTYDSVYLHPYS [N23Y] | 1.73 |
| QYMNEGELRVLADTYDSVYLHPVS [N23V] | 2.03 |
